Experiment: soluble on expression in E. coli; label from the status in PepcDB or PDB records

Sequence | soluble on expression in E. coli
MSLTHLFYLTRGAPLSLKENYYPWLKAGSFFPDALYSCAPSNKDWSDFAEFTHWPNFLMIAVSYWQQKYGQNDRLRGTHGSLALKSFLIGVFTHQIVDVSWHSLVTDYRMHGLLRVLSETEFDGDIETAHTFLDVMGEFLTLNNVIRDSNNNENWDFLTRSDWKLPREEDLMEIIRNAGLSKEKLSYAELEFCVKRGMAAAISEGYLFRSQRNQLLTNIYSTSPRANDLILNHWLGGQSNLVAMLQRCVPFFETLFHDENTNEAQAEELRLCANLPPVSQKRINARPLVSSLKARKGNSHIVVSPMKSFSDFGTSLTMGKFREDNKDYLAVSAPLEDTVGAIYIVPWDILTVARKEDFSILQPITAMYGSKVGTYKASDVDYLLVSQPGTCTIDFYFKGVKILTIKDETTEEAHQLQFAVTGNFYDDKIPDLVVSSPSYGANETGIATFIPGSSIISYLTNSDKYQVVDISTFKGVINLDGYPMKIPFQHFGATIQISDTTDKQKLIYITCQSLGTVFVYSSNDLHDLSIPIYYITKNGVIPAKDSDHVEWHIIPSKEHGMFGAAIYSWNFEGMSFVAVSQPMFDTVFIYIEKSGQIEFFLKLVLKIKTKSDSIPDEFGSSLLFNDEEKKLYVSSPGSFDARGSIWKISMDELLKAGNDPKRKTLLINNLRHLMLINPDKSSKGVSNFGNSMILGPQNHLIVGIPQYGYGNFDHMQLTGRILVLEGHHHHHH | not soluble
SSVPPGSIIVSDWHRCPDSREFFSKILHKKRRRKFGLLEAPMMPPQMNVDLVRYKVFLSGKTGVGKSALAARLAGLDLPKMHYETTGIETTVVFWPVRLKESGRVLFFRFELWDCGESAMRRFDHMLLSCKEKVDAILFLFSFTDRGSFDDLTNQISRITEPSDRVVKLVVGTKFDLFMHTDVTESDVTHFQEVWGLPVFRVGGDVSAGLGEVAPLLNALAENLWHQDCMAASSVSISPQAALRETSSEIIV | not soluble
MIDNVADGKIEADSKQAVNGGQLRDYTEQQMKIVLDDAKKYTDEQVKDRVSNGVNEAKSYTDMKFETLSYVVEDVRKAARQAVAMGLAVSNLRYYDIPGSLSLSFGTGIWRNQSAFAIGVGYTSEDGNIRSNLSITSADSHWDIGAGLRIKLN | not soluble
MAHHHHHHMMEHLNIEKEAVTYASLIAALHNPQYVLPGHTAKELEAHLPGGVSSQQHTNVGEGGGTVTEGQASGPTSNSVDLSGTKTSYEAYRQERIEAGMAWFAACHSAHRTADVFNELLYLLRAKSHWCQFNTVLVQLRGNAVVTETEWPERLSEAGEGVPPSASAAGGASPGSVTILAPRWSTWPNGKTYELLIQRARYVHQWEVMWALYEEMIATGVHGTARVYEVLLLEARSHPPQAVLAAERSGNSDGASSFLLRLYEELRRNGSDVHSFTGTVNVVNAWTRARSRSNRWQS | not soluble
ETISAFSNQVIQRGATGDDVVELQARLQYNGYYNGKIDGVYGWGTYWAVRNFQDQFGLKEVDGLVGAKTKQTLICKSKYYREYVMEQLNKGNTFTHYGKIPLKYQTKPSKAATQKARQQAEARQKQPAEKTTQKPKANANKQQNNTPAKARKQDAVAANMPGGFSNNDIRLLAQAVYGEARGEPYEGQVAIAAVILNRLNSPLFPNSVAGVIFEPLAFTAVADGQIYMQPNETAREAVLDAINGWDPSEEALYYFNPDTATSPWIWGRPQIKRIGKHIFCE | not soluble
MKSYHKELWMEVPSRMDFVNITRDVSRALDESGIREGLCLVNAMHITASVFINDDEPGLHADYKQWLEELAPHNPSHYQHNRTGEDNGDAHHKRQIMGREVVVAVTKGELHLGPWEQIFYGEFDGRRRKRVLIKIIGALEHHHHHH | soluble
MGSDKIHHHHHHENLYFQGMTQLELLLERIIDRVNVNLRHQKFDVGDYVRRQTPHLHYSKFYAFYGLSADDPVHFHFKNSSLAGSYLLGRVNVLHSALYKSDIRGDELKRKGQHFVCDGKMIPLHDDEVITIKDSFLNKTLVHSNSHDPESPEEFTIRNTVAMPYANIHGSLTEGSFIGSFATVDLSTIHNSVVRYFSYVQTGELVGKCVEPGQIWIKSGDELEFHYSFDKAILDKYISQEAGSCPTGVLMEFVEVRQEDFEEVFASGHMASGAGSASGASVSGYAVIKGDTVIGENVLVSQRAYLDNAWMGKGSNAQENCYIINSRLERNCVTAHGGKIINAHLGDMIFTGFNSFLQGSESSPLKIGDGCVVMPHTIIDLEEPLEIPAGHLVWGYIRNKADLAAHSISFEEFAKVDGEVTMGRMTFRGKGGPFLDSFKKRIKRILSENGAFFDGSEGTGHAQKGKNFTFNIIQPYQDGDPRGMYPTILIQPNNGS | soluble
MFRVQTLNQIAEKGLQVFTEERYEVGDRINHPDGILLRSYSLHQEEFSKDLKAIARAGAGVNNIPVERCTEKGIVVFNTPGANANAVKELIIASLIMSSRNIINGVSWTKNLEGEEVPQLVESGKKQFVGSEIAGKRLGVIGLGAIGALVANDALALGMDVIGYDPYISVETAWRLSTHVQRAFSLDEIFATCDYITLHIPLTNQTKGIIGEHAVEKMKRGMRLFNFSRGELVDEKVLQKALEEDIITHYVTDFPNENVIKMKNVTATPHLGASTSESEENCAVMAARQLREYLETGNIRNSVNYPNVELPYIGKKRITIMHQNVPNMVGQITGCLAEHHINIADMTNRSKHSWAYTMIDIDNGIDDIIKENIVENISKITGVVAVRMIV | not soluble
MGSDKIHHHHHHMHAWESIQITLDLIEANLSEEISINELANKANLSPFYYQRLFKRLVNKTVMEYIKLRRLARASEYLAEHKNRILDVALNFGFASHETFTRSFKKAYGLTPEKYRANPVKLNHFIKPELILNYAMVDEGVPLIADDIVIEVNRKTLSNPRTFVGIEIEVPICQLVGGETTGIAIVEELWMKLGSQRHNIPNQIPGGNEFAALYMGNAKEGNCMYMAGVEVESGTSVEGYSTFELPVKEYLVCGFEAENFNELVNSAVFKADKFMERWMKKHNLTTTDFAIEMYYPTTPEAAYLEHWIVPVPIEQ | not soluble
SEGSGEQPGPQPQHPGDHRIRDGDFVVLKREDVFKAVQVQRRKKVTFEKQWFYLDNVIGHSYGTAFEVTSGGSLQPKKKREEPTAETKEAGTDNRNIVDDGKSQKLTQDDIKALKDKGIKGEEIVQQLIENSTTFRDKTEFAQDKYIKKKKKKYEAIITVVKPSTRILSIMYYAREPGKINHMRYDTLAQMLTLGNIRAGNKMIVMETCAGLVLGAMMERMGGFGSIIQLYPGGGPVRAATACFGFPKSFLSGLYEFPLNKVDSLLHGTFSAKMLSSEPKDSALVEESNGTLEEKQASEQENEDSMAEAPESNHPEDQETMETISQDPEHKGPKERGSKKDYIQEKQRRQEEQRKRHLEAAALLSERNADGLIVASRFHPTPLLLSLLDFVAPSRPFVVYCQYKEPLLECYTKLRERGGVINLRLSETWLRNYQVLPDRSHPKLLMSGGGGYLLSGFTVAMDNLKADTSLKSNASTLESHETEEPAAKKRKCPESDS | soluble
MSLDENKPVLVLGATGKQGGSAARYLLERGWTVRAFVRDPGAPKAKELRELGASLHTGDLEDAGSVRAAMKGAYGVFSIQTPMTPAGVEGEERQGKICADAARDLGVQHYVHSSVGGAERPEGVNWRLSKLAIEQRIQENALRFTFLRPSYFMENLNHDMSPLVMEDGVLTFRRGLGPANTLQMISGPDIGYFAADAFDDPDTFGGAKIELAGDELTGEQIAAAFGRHTGLPARFVSVPIPELHRTGFEWQAISYTWLNGIGYHADIPTLRARFPQLLTLDQWLARTGWTPRDPAEGHHHHHH | soluble
AHHHHHHGSVSKPHGGKLIRRIAAPRTRERILSEQHEYPRVQIDHGRAIDLENIAHGVYSPLKGFLTREDFESVLDYMRLSDDTPWTIPIVLDVGEPTFEGGDAILLYYENPPIARMHVEDIYTYDKKEFAVKVFKTDDPNHLGVARVYSMGKYLVGGGIELLNELPNPFAKYTLRPVETRILFKERGWKTIVAFQTRNVPHLGHEYVQKAALTFVDGLFINPVLGRKKKGDYKDEVIIKAYYLIMKYCSNTTHHAIMRKTSTSSQT | not soluble
MTDVEKPVDNSGTLIDDILSPLKGVNEDLNVLVLGGDKVNNNTDTMMLVNFKPSTSKVSILSIPRDTKVKINGKKAKINSAYPTGGGELAVQTVSELFGIDVKYYVFVDTSSFRKIIDILGGVDYYVPVDMDYDDPLQGLSIHIKKGQHHFDGAMAEKFMRFRQYNNGRVNEYYDGSDLKRIDAQQNFIRELVRQKLNIFYLTKVDDIASTIFSNIDTNLNMSEVLKLTGSVSKVQADSINMLKVPGKSVLDGAWYYVIDSQETDKIINEYFRTRYKLEHHHHHH | soluble
MGSDKIHHHHHHVTDHGFSFCAHAEQYAIIGSLSQLETSDNRDCDIRRPALNRCMAEKGTLRPEAAQIFQRLEALGLKQRELAQALGIEENKISKVRAGERQFKGAELLAAYEWLDQREAEAHMPRLSRVAAVGQQVIPATPVEGEVVQIQKLDLSLSMGPGTLIDGYVESELVSFDLGFVRLFTRAASDHLRLVTGIGDSMEPTLKWGDLILIDTTDRMLSKQDGIYWINLYGAAGIKRLRAIGPRTILVKSDNPGVDDQEVEAEDLRIEGRAIWATRGL | not soluble
MKEKILLGGYTKRVSKGVYSVLLDTKAAELSSLNEVAAVQNPTYITLDEKGHLYTCAADSNGGGIAAFDFDGETATHLGNVTTTGAPLCYVAVDEARQLVYGANYHLGEVRVYKIQANGSLRLTDTVKHTGSGPRPEQASSHVHYSDLTPDGRLVTCDLGTDEVTVYDVIGEGKLNIATIYRAEKGMGARHITFHPNGKIAYLVGELNSTIEVLSYNEEKGRFARLQTISTLPEDYHGANGVAAIRISSDGKFLYTSNRGHDSLTTYKVSPLGTKLETIGWTNTEGHIPRDFNFNKTEDYIIVAHQESDNLSLFLRDKKTGTLTLEQKDFYAPEITCVLPLLEHHHHHH | not soluble
TVAEPKAINATQPLLLDAVRGKEVERPPVWLMRQAGRYMKSYQLLCEKYPLFRDRSENVDLVVEISLQPWKVFRPDGVILFSDILTPLSGMNIPFDIIKGKGPVIFDPLRTAADVEKVREFIPEKSVPYVGEALTILRKEVNNQAAVLGFVGAPFTLASYVVEGGSSKNFTKIKRLAFAEPKVLHALLQKFATSMAKYIRYQADSGAQAVQIFDSWATELSPVDFEEFSLPYLKQIVDSVKLTHPNLPLILYASGSGGLLERLPLTGVDVVSLDWTVDMADGRRRLGPNVAIQGNVDPGVLFGSKEFITNRINDTVKKAGKGKHILNLGHGIKVGTPEENFAHFFEIAKGLRY | soluble
MGSDKIHHHHHHMKFFKSLLIAPAALGLMAPVAVNADTAFSPTTKLKSSVNFTVGSNADSADGDELHSSYEMKWKATTSFTGEDKLVGKFEIGSGKTLAGGIDPQSSKGGGKTPTLTDLYYQFPLAEDLTISIGPKMDGDQGLAGTTSVYGEPVLLAADGYYALAGEGGTGATIAYAGDNGWNASLNMTAADGDDASKGIFGDDTEDYVTAQLGFDGDGFGGTFTYSDSSDTYTAYGIGAYFQPESIPVTVSAYFDSMDPEKGEEDENWVVGVEADAGPGTLGVGVGTQKGTDEKLTYEAWYDYKIADGVKITPMIWTSEDAGVGGEDLSGAALNVKYKF | not soluble
MAHHHHHHMEDGEALDLQDALKPEVKERPVRLIKIERHDGTKAFLNSVIEMAQVVLDNMPPDACYKDIAIKLKTKLDEVEKGTWHVIVGSHFGANVTNDSETLVNFKIDEMHILLFRSGPPERPMSLNDEGS | soluble
MIFMRKVVAEVSIIPLGKGASVSKYVKKAIEVFKKYDLKVETNAMGTVLEGDLDEILKAFKEAHSTVLNDVDRVVSSLKIDERKDKENTIERKLKAIGEL | soluble
